Data from patent US20160376555A1, “NOVEL METHODS TO REGENERATE HUMAN LIMBAL STEM CELLS” (The Regents of the University of California, priority 2012, published 2016).

How the values were obtained:
Wnt3a activities [1] = assay: Wnt reporter gene assay; assay type: cell-based; details: Dkk2 at 125 nM
Text: As discussed above, Wnt/β-catenin and Notch pathways play pivotal roles in the fate determination decision between epidermal and corneal epithelial lineage in mice. In particular, Dkk2 is necessary for corneal development and activation of Notch1 is required to maintain the corneal lineage. Dkk2 alone or in combination with Notch1 activation may facilitate and increase the efficiency of the reprogramming process in humans. Functional recombinant Dkk2 protein can be provided by Dr. Jie Zheng (St. Jude Children's Research Hospital) (see, e.g. Lin et al., Proc Natl Acad Sci USA 2010; 107:4194-4199). It inhibits Wnt3a activities with an IC50 value around 8 nM in the Wnt reporter gene assay(see, e.g. Lujan et al., Proc Natl Acad Sci USA 2012; 109:2527-2532). Therefore, we can use the 3-step coculture protocol as described above and add Dkk2 to the culture medium at various concentrations starting at 8 nM to the Step 1 co-culture, which is the reprogramming step. Phenotypic analysis can be performed in each of the 3 steps to determine the outcome of transdifferentiation by the expression of K12 and K10 in the cultured epithelial cells. The optimal concentration of Dkk2 that achieves the highest portion of K12+ cells in Step 3 can be determined. This concentration of Dkk2 can be used. […]

Wnt3a activities [2] = details: functional recombinant Dkk2 protein; Wnt reporter gene assay; read-out: IC50, inhibition of Wnt3a activities; cited from earlier work

B1: Dkk2: Functional recombinant Dkk2 protein, a Wnt inhibitor (protein, UniProt Q9UBU2 34-259, looked up)
Dickkopf-related protein 2: KLNSIKSSLGGETPGQAANRSAGMYQGLAFGGSKKGKNLGQAYPCSSDKECEVGRYCHSPHQGSSACMVCRRKKKRCHRDGMCCPSTRCNNGICIPVTESILTPHIPALDGTRHRDRNHGHYSNHDLGWQNLGRPHTKMSHIKGHEGDPCLRSSDCIEGFCCARHFWTKICKPVLHQGEVCTKQRKKGSHGLEIFQRCDCAKGLSCKVWKDATYSSKARLHVCQKI
**Q.** What does the source list for B1?
**A.** inhibition (Wnt3a activities [1]): 90%; IC50 (Wnt3a activities [2]): ~8 nM
